From doi:10.1101/2020.03.13.990150

Biological target: Saccharomyces cerevisiae (Sc) Tim9 (Saccharomyces cerevisiae)
Assay: SEC

Saccharomyces cerevisiae (Sc) Tim9 (natural protein)
stoichiometry N: 2
